# Laboratory results: PMC11514458
# T1: BCDX2 complex (human, UniProt O15315;O43502;O75771;O43543 1-384;1-376;1-328;1-280)
# T1 sequence 1: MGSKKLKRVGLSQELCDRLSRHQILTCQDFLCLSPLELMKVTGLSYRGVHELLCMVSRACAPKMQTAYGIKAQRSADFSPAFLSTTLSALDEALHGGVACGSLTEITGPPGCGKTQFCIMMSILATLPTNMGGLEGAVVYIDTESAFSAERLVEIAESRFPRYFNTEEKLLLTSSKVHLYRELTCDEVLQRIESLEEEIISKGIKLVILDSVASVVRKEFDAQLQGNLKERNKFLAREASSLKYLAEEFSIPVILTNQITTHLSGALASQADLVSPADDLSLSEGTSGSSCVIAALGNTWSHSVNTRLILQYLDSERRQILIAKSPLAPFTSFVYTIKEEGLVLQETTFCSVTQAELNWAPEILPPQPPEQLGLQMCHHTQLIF
# T1 sequence 2: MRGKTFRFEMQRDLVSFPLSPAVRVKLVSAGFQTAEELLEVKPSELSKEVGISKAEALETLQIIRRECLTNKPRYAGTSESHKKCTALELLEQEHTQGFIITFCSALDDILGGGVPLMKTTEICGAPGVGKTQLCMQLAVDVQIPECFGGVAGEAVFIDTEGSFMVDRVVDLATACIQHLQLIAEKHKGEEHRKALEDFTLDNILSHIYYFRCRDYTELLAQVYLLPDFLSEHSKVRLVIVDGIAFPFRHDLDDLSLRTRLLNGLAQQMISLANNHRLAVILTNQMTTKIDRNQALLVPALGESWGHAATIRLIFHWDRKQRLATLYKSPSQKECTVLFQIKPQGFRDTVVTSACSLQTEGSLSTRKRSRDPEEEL
# T1 sequence 3: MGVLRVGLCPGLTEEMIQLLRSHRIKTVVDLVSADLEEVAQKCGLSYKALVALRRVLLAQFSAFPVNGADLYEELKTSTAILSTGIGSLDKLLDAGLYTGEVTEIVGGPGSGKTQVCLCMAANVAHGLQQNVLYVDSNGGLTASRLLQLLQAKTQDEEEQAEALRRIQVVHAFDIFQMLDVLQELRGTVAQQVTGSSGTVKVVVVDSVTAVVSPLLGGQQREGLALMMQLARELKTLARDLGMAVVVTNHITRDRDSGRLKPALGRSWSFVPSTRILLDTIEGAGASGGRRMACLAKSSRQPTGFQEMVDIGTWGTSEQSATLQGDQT
# T1 sequence 4: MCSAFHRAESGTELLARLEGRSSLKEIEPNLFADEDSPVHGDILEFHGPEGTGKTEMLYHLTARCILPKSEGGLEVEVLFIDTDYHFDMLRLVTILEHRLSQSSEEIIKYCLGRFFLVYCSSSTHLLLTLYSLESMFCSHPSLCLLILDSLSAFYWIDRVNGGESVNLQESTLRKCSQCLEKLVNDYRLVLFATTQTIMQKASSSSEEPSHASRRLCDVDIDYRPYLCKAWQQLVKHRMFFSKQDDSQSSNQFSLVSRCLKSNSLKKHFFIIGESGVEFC
# T2: BC complex (human, UniProt O15315;O43502 1-384;1-376)
# T2 sequence 1: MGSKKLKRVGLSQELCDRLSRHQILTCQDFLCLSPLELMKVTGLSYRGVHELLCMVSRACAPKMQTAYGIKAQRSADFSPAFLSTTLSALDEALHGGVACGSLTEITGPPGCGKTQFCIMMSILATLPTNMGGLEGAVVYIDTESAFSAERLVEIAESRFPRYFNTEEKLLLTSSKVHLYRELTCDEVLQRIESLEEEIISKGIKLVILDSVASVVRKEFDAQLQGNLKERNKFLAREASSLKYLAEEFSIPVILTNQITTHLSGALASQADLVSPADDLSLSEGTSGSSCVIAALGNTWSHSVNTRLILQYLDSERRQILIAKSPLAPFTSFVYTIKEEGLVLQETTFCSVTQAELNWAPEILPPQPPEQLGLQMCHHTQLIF
# T2 sequence 2: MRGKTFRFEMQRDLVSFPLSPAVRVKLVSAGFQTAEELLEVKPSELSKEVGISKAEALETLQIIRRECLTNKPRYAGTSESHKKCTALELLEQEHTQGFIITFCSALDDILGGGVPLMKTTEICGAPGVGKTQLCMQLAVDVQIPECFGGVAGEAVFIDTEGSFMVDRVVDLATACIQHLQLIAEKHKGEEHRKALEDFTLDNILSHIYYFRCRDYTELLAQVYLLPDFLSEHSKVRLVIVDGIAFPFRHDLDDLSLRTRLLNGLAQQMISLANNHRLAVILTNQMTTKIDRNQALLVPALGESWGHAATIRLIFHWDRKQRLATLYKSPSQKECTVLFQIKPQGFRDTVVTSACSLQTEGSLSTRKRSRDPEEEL
# T3: DX2 complex (human, UniProt O75771;O43543 1-328;1-280)
# T3 sequence 1: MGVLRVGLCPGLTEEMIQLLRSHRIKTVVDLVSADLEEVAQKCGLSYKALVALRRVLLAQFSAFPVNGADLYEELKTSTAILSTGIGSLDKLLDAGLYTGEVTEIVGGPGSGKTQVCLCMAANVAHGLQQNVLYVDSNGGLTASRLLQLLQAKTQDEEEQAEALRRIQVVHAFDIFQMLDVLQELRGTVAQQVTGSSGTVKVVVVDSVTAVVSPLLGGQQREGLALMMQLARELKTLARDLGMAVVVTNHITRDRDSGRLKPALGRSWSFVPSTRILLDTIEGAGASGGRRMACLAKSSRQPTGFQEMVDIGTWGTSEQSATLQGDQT
# T3 sequence 2: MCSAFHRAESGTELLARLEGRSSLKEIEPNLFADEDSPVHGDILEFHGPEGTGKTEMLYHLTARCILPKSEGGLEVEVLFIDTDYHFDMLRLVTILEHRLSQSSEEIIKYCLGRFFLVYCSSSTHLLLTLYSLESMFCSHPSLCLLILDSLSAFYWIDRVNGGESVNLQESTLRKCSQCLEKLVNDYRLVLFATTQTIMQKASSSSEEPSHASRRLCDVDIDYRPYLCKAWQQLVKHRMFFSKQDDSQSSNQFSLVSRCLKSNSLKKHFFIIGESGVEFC
# Experiments:
# BCDX2 complex [1] = target: T1, BCDX2 complex; assay: EMSA; ATP, Mg2+; EMSA: 20 mM Tris-HCl pH 7.5, 2 mM MgCl2, 2 mM ATP, 37 C, 20 nM DNA, glutaraldehyde fixation; stopped-flow: 25 mM Tris-HCl pH 7.5, 5 mM MgCl2, 50 mM KCl, 2 mM ATP, 0.5 mM EDTA, 10% glycerol, 37 C; BLI: 50 mM Tris-HCl pH 7.5, 2 mM ATP, 50 mM KCl, 5 mM MgCl2, 0.05% Tween 20, room temperature; conditions: protein: recombinant; tags: Strep-tag and His-tag (XRCC2 N-terminal His); copies: 1;1;1;1; label: 3' FITC
# BC complex = target: T2, BC complex; assay: EMSA; EMSA: 20 mM Tris-HCl pH 7.5, 2 mM MgCl2, 2 mM ATP, 37 C, 20 nM DNA, glutaraldehyde fixation; stopped-flow: 25 mM Tris-HCl pH 7.5, 5 mM MgCl2, 50 mM KCl, 2 mM ATP, 0.5 mM EDTA, 10% glycerol, 37 C; BLI: 50 mM Tris-HCl pH 7.5, 2 mM ATP, 50 mM KCl, 5 mM MgCl2, 0.05% Tween 20, room temperature; conditions: protein: recombinant; tags: Strep-tag; copies: 1;1; label: 3' FITC
# DX2 complex = target: T3, DX2 complex; assay: as above; conditions: protein: recombinant; tags: His-tag; copies: 1;1; label: 3' FITC
# BCDX2 complex [2] = target: T1, BCDX2 complex; assay: EMSA; stronger than ssDNA; EMSA: 20 mM Tris-HCl pH 7.5, 2 mM MgCl2, 2 mM ATP, 37 C, 20 nM DNA, glutaraldehyde fixation; stopped-flow: 25 mM Tris-HCl pH 7.5, 5 mM MgCl2, 50 mM KCl, 2 mM ATP, 0.5 mM EDTA, 10% glycerol, 37 C; BLI: 50 mM Tris-HCl pH 7.5, 2 mM ATP, 50 mM KCl, 5 mM MgCl2, 0.05% Tween 20, room temperature; conditions: protein: recombinant, tags: Strep-tag and His-tag (XRCC2 N-terminal His), copies: 1;1;1;1
binder,measurement,setting,value
AGCTACCATGCCTGCACGAATTAAGCAATTCGTAATCATGGTCATAGCT (ssDNA) [ssDNA 49mer],binding result,BCDX2 complex [1],binds
same,binding result,BC complex,no binding
same,binding result,DX2 complex,no binding
Y-form (mixed) DNA 1: AGCTACCATGCCTGCACGAATTAAGCAATTCGTAATCATGGTCATAGCT DNA 2: AGCTATGACCATGATTACGAATTGCTTGGAATCCTGACGAACTGTAG,binding result,"BCDX2 complex [2]; label: 3' FITC on strand 1, fork 1:2",binds
3' flap (mixed) DNA 1: AGCTACCATGCCTGCACGAATTAAGCAATTCGTAATCATGGTCATAGCT DNA 2: AGCTATGACCATGATTACGAATTGCTTGGAATCCTGACGAACTGTAG DNA 3: AATTCGTGCAGGCATGGTAGCT,binding result,"BCDX2 complex [2]; label: 5' FITC on strand 1, flap 1:2 1:3",binds
